The Kd is the free concentration of one partner at which half of the binding sites on the other are occupied at equilibrium, for simple one-to-one binding.

The results in this text go back to PMC8754640.

Data set [1] has as its target His-PABP 4EA-Flag (Flag-PABP 4EA) (UniProt P11940 2-636, E178A;E180A;E182A;E189A). As to the kind of experiment: EMSA. On the technique in general: A gel shift assay detects complexes by their altered migration in electrophoresis.
Data set [2] has as its target His-PABP WT-Flag (Flag-PABP) (UniProt P11940 2-636). As to the kind of experiment: EMSA.

His-PABP WT-Flag (Flag-PABP), sequence (P11940 2-636): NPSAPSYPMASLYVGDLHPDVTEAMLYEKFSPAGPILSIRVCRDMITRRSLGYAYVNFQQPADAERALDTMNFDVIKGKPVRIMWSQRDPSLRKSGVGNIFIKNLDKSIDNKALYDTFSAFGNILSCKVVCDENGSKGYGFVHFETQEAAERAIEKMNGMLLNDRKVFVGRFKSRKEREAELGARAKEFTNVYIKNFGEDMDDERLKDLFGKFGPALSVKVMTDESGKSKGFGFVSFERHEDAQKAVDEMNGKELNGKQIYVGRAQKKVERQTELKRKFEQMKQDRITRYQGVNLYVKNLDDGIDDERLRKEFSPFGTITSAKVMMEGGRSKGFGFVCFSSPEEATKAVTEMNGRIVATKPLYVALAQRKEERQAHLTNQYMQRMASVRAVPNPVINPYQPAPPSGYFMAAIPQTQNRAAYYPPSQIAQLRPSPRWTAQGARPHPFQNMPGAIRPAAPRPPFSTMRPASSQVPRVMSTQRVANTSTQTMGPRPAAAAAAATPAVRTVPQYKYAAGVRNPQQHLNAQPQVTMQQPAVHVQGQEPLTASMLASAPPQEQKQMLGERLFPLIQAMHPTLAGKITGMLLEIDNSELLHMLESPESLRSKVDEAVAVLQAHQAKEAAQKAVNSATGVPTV
His-PABP 4EA-Flag (Flag-PABP 4EA), sequence (P11940 2-636 E178A/E180A/E182A/E189A): as the sequence (P11940 2-636) above, with E177A, E179A, E181A, E188A counted along it

In the case of AAAAAAAAAAAAAAAAAAAAAAAAA (ssRNA) [poly(A)25], the values for the Kd in data set [1] and in data set [2] were about 2.2 nM and about 0.5 nM, respectively.
